Starred links: 1 amine or outer side, 2 acyl side, 3 side chain; linkers in the order of their positions; H or OH if unused. Non-standard residues stand in square brackets, D forms with d. Groups on a side chain read outwards from the residue. No end group written: not given here. *: point of attachment. C18 diacid = O=C(O)CCCCCCCCCCCCCCCCC(=O)*; C17 diacid = O=C(O)CCCCCCCCCCCCCCCC(=O)*; γGlu = O=C(O)[C@H](CCC(=O)[*:2])N[*:1]; NMeY = CN[C@@H](Cc1ccc(O)cc1)C(=O)O; Stearoyl = CCCCCCCCCCCCCCCCCC(=O)*; AEEA = NCCOCCOCC(=O)O; E∗ = not defined here; K∗ = not defined here; Aib = CC(C)(N)C(=O)O
T1: full-length human GIPR with an N-terminal FLAG tag, overexpressed on HEK-293T cells (human, UniProt P48546 22-466)
T1 sequence (looked up): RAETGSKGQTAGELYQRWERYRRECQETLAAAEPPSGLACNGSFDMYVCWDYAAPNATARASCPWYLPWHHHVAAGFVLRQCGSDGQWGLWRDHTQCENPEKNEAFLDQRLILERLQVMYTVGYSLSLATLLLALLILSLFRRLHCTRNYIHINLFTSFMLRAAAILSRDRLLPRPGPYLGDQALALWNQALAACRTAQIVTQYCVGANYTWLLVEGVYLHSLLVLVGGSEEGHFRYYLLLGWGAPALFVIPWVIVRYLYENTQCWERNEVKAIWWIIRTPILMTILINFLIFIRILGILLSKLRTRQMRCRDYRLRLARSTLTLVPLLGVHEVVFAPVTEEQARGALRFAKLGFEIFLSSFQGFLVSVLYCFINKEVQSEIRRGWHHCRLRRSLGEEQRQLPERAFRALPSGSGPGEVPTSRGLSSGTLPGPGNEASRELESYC


Experiments:
[1] = target: T1, full-length human GIPR with an …; assay: cell-based or functional assay
[2] = target: full-length human GLP-1R with an N-terminal FLAG tag, overexpressed on HEK-293T cells (human, UniProt P43220 24-463); assay: cell-based or functional assay

| Binder | Human GIPR cAMP EC50, HEK293T [1] [nM] | Human GLP1R cAMP EC50, HEK293T [2] [nM] |
| --- | --- | --- |
| Me-Y[Aib]EGTFISDYSIALDRAAQQK([AEEA-AEEA-γGlu-γGlu-C18 diacid])FVNWLLAQSPG-OH [Compound No. 178] | 0.0006 | 186 |
| [NMeY][Aib]EGTFISDYSI[Aib]LDR[Aib]AA[Aib]K([AEEA-AEEA-γGlu-γGlu-C18 diacid])FVNWLLAQRG-OH [Compound No. 212] | 0.0003 | 42.7 |
| YXEGTFISDYSIAXDRIAQRNFVEWLLAQSPSSGAPPPS (N-terminal Me (Me-Tyr 1); Aib at 2; Km at 14 = Lys(G5-C18DA); C-terminus OH) [Compound No. 179] | 0.0008 | 2.88 |
| [NMeY][Aib]EGTFISDYSI[Aib]LDR[Aib]HQ[Aib]K([AEEA-AEEA-γGlu-γGlu-C18 diacid])FVNWLLAQRG-OH [Compound No. 201] | 0.0009 | 61.7 |
| YXEGTFISDYSIALDRXHQXNFVNELLKQXPSSGAPPPS (N-terminal Me (Me-Tyr 1); Aib at 2, 17, 20; E* at 25 and K* at 28 (mark * as printed, not explained); Km at 30 = Lys(2OEGgE-C18DA); C-terminus NH2) [Compound No. 185] | 0.001 | 1000 |
| [NMeY][Aib]EGTFISDYSIALDR[Aib]AQ[Aib]K([AEEA-AEEA-γGlu-γGlu-C17 diacid])FVNWLLAQKG-OH [Compound No. 200] | 0.0006 | 77.6 |
| [NMeY][Aib]EGTFISDYSI[Aib]LDR[Aib]AQ[Aib]K([AEEA-γGlu-γGlu-C18 diacid])FVNWLLAQRG-OH [Compound No. 207] | 0.0004 | 36.3 |
| H-Y[Aib]EGTFISDYSIALDRAAQ[Aib]K([AEEA-AEEA-γGlu-γGlu-C18 diacid])FVEWLLAQRG-OH [Compound No. 206] | 0.0004 | 26.3 |
| Me-Y[Aib]EGTFISDYSIALDKIAQ[Aib]K([AEEA-AEEA-γGlu-γGlu-C18 diacid])FVNWLLAQRG-OH [Compound No. 175] | 0.0007 | 58.9 |
| [NMeY][Aib]EGTFISDYSIALDR[Aib]HQ[Aib]NFVNWK([AEEA-AEEA-γGlu-C18 diacid])LAQR-NH2 [Compound No. 186] | 0.0003 | 1000 |
| [NMeY][Aib]EGTFISDYSI[Aib]LDR[Aib]AQ[Aib]K([AEEA-AEEA-γGlu-γGlu-C18 diacid])FVNWLLAQRG-NH2 [Compound No. 204] | 0.0003 | 6.61 |
| [NMeY][Aib]EGTFISDYSIALDRIHQQNFVNWLLAQK([AEEA-AEEA-γGlu-C18 diacid])PSSGAPPPS-NH2 [Compound No. 190] | 0.0005 | 97.7 |
| YXEGTFISDYSIAXDRIAQRNFVEWLLAQSPG (N-terminal Me (Me-Tyr 1); Aib at 2; Km at 14 = Lys(G5-C18DA); C-terminus OH) [Compound No. 180] | 0.0009 | 5.75 |
| Me-Y[Aib]EGTFISDYSIALDRIAQQK([AEEA-AEEA-γGlu-γGlu-C18 diacid])FVNWLLAQSPSSGAPPPS-OH [Compound No. 177] | 0.0003 | 100 |
| H-Y[Aib]EGTFISDYSI[Aib]LDKAK([AEEA-AEEA-γGlu-C18 diacid])QADFVNWLLAQRG-OH (SMILES CC[C@H](C)[C@H](NC(=O)[C@H](Cc1ccccc1)NC(=O)[C@@H](NC(=O)CNC(=O)[C@H](CCC(=O)O)NC(=O)C(C)(C)NC(=O)[C@@H](N)Cc1ccc(O)cc1)[C@@H](C)O)C(=O)N[C@@H](CO)C(=O)N[C@@H](CC(=O)O)C(=O)N[C@@H](Cc1ccc(O)cc1)C(=O)N[C@@H](CO)C(=O)N[C@H](C(=O)NC(C)(C)C(=O)N[C@@H](CC(C)C)C(=O)N[C@@H](CC(=O)O)C(=O)N[C@@H](CCCCN)C(=O)N[C@@H](C)C(=O)N[C@@H](CCCCNC(=O)COCCOCCNC(=O)COCCOCCNC(=O)CC[C@H](NC(=O)CCCCCCCCCCCCCCCCC(=O)O)C(=O)O)C(=O)N[C@@H](CCC(N)=O)C(=O)N[C@@H](C)C(=O)N[C@@H](CC(=O)O)C(=O)N[C@@H](Cc1ccccc1)C(=O)N[C@H](C(=O)N[C@@H](CC(N)=O)C(=O)N[C@@H](Cc1c[nH]c2ccccc12)C(=O)N[C@@H](CC(C)C)C(=O)N[C@@H](CC(C)C)C(=O)N[C@@H](C)C(=O)N[C@@H](CCC(N)=O)C(=O)N[C@@H](CCCNC(=N)N)C(=O)NCC(=O)O)C(C)C)[C@@H](C)CC) [Compound No. 171] | 0.0006 | 83.2 |
| Me-Y[Aib]EGTFISDYSIALDKAAQ[Aib]K([AEEA-AEEA-γGlu-γGlu-C18 diacid])FVNWLLAQRG-OH [Compound No. 176] | 0.0003 | 40.7 |
| [NMeY][Aib]EGTFISDYSIALDR[Aib]HQQNFVNWLLAQK([AEEA-AEEA-γGlu-C18 diacid]) [Compound No. 191] | 0.0032 | 97.7 |
| Me-Y[Aib]EGTFISDYSIALDR[E∗]HQ[K∗]NFVNWLLAQK([AEEA-AEEA-γGlu-C18 diacid])PSSGAPPPS-NH2 (not fully specified (residue 1); reading uncertain; also: E* at 17 and K* at 20 marked, meaning not given here) [Compound No. 183] | 0.0007 | 162 |
| Me-Y[Aib]EGTFISDYSIALDR[Aib]HQ[E∗]NF[K∗]NWLLAQK([AEEA-AEEA-γGlu-C18 diacid])PSSGAPPPS-NH2 (not fully specified (residue 1); reading uncertain; also: E* at 20 and K* at 23 marked, meaning not given here) [Compound No. 182] | 0.0525 | 214 |
| Me-Y[Aib]EGTFISDYSIALDKIAQ[Aib]K([AEEA-AEEA-γGlu-γGlu-C18 diacid])FVEWLLAQRG-OH [Compound No. 173] | 0.0003 | 105 |
| [NMeY]GEGTFISDYSI[Aib]LDR[Aib]AQ[Aib]K([AEEA-AEEA-γGlu-γGlu-C18 diacid])FVNWLLAQRG-OH [Compound No. 205] | 0.0008 | 33.1 |
| Me-Y[Aib]EGTFISDYSIALDKAAQ[Aib]K([AEEA-AEEA-γGlu-γGlu-C18 diacid])FVEWLLAQRG-OH [Compound No. 174] | 0.0004 | 47.9 |
| [NMeY][Aib]EGTFISDYSI[Aib]LDR[Aib]AQ[Aib]K([AEEA-AEEA-γGlu-C18 diacid])FVNWLLAQRG-OH [Compound No. 208] | 0.0003 | 9.33 |
| [NMeY][Aib]EGTFISDYSIAK([AEEA-AEEA-γGlu-γGlu-C17 diacid])DR[Aib]AQ[Aib]NFVNWLLAQS-OH [Compound No. 192] | 0.0002 | 178 |
| Y[Aib]EGTFISDYSIAMDKK([AEEA-AEEA-γGlu-C18 diacid])HQQDFVNWLLAQKGKKNDWKHNITQ-OH [Compound No. 188] | 0.0019 | 132 |
| [NMeY][Aib]EGTFISDYSI[Aib]LDR[Aib]AQ[Aib]K([AEEA-AEEA-γGlu-γGlu-Stearoyl])FVNWLLAQRG-OH [Compound No. 202] | 0.0042 | 2.51 |
| [NMeY][Aib]EGTFISDYSI[Aib]LDR[Aib]AQ[Aib]K([G5-γGlu-γGlu-C18 diacid])FVNWLLAQRG-OH [Compound No. 210] | 0.0003 | 10.7 |
| Y[Aib]EGTFISDYSIAK([AEEA-AEEA-γGlu-C18 diacid])DKIHQQDFVNWLLAQKGKKNDWKHNITQ-OH [Compound No. 187] | 0.0032 | 562 |
| [NMeY][Aib]EGTFISDYSIALDR[Aib]AQ[Aib]K([AEEA-AEEA-γGlu-γGlu-Stearoyl])FVNWLLAQKG-OH [Compound No. 203] | 0.0013 | 4.17 |

— patent US20230143604A1, “QW DOSING OF GIP RECEPTOR AGONIST PEPTIDE COMPOUNDS AND USES THEREOF” (TAKEDA PHARMACEUTICAL COMPANY LIMITED, priority 2020, published 2023)
